Results from article PMC7496416 (Molecular microbiology, 2020).

Assays:
[1] = tested on: NasR wild type (Klebsiella oxytoca); assay: fluorescence anisotropy; details: 50 mM HEPES pH 7.5, 100 mM KCl, 1 mM MgCl2, with or without 1 mM KNO3; 50 nM Cy3-RNA final; 30 min in the dark, temperature not stated; Hill fit
NasR (His10-MBP-NasR) = target: T1, NasR (His10-MBP-NasR) (Klebsiella oxytoca, UniProt Q48468); assay: fluorescence anisotropy of Cy3-labelled P1P2 nasF leader RNA, ion titration; format: biochemical; details: 8 uM protein; 50 mM HEPES pH 7.5, 100 mM KCl, 1 mM MgCl2; allosteric activator, NIT domain
T1 sequence (Q48468 1-396): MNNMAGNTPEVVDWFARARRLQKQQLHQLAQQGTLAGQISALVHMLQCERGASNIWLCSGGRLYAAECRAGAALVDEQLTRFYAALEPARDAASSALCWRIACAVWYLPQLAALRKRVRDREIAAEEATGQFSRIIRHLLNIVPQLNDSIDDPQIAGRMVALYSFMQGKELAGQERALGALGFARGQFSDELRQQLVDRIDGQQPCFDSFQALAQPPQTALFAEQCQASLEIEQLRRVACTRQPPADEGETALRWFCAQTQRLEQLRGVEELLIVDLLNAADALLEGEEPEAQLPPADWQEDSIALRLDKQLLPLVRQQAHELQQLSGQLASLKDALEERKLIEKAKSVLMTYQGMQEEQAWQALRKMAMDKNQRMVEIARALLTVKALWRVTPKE

[2] = tested on: NasR K347R (Klebsiella oxytoca); assay: fluorescence anisotropy; details: 50 mM HEPES pH 7.5, 100 mM KCl, 1 mM MgCl2, with or without 1 mM KNO3; 50 nM Cy3-RNA final; 30 min in the dark, temperature not stated; Hill fit
[3] = tested on: NasR R340K (Klebsiella oxytoca); assay: fluorescence anisotropy; details: 50 mM HEPES pH 7.5, 100 mM KCl, 1 mM MgCl2, with or without 1 mM KNO3; 50 nM Cy3-RNA final; 30 min in the dark, temperature not stated; Hill fit

| Molecule | Kd [1] | activation of RNA binding (Hill fit) (NasR (His10-MBP-NasR)) | binding signal (fold weaker than wild type) [2] | binding signal (fold weaker than wild type) [3] |
| --- | --- | --- | --- | --- |
| P2 single-hairpin RNA | 12 µM |  |  |  |
| O=[N+]([O-])O [nitrate] |  | RNA binding activity was only observed in conditions containing nitrate or nitrite |  |  |
| O=NO [nitrite] |  | RNA binding activity was only observed in conditions containing nitrate or nitrite |  |  |
| P1P2 two-hairpin RNA | 1 µM |  | 10 | 10 |
